Results reported in patent publication US20260242478A1 (published 2026).
Where no end group is shown, it is not given here.

B1: Phage-1385 peptide (SEQ ID NO: 1681) (peptide)
peptide: TCAAGAHWPWPTCF
B2: Phage-1380 peptide (SEQ ID NO: 1676) (peptide)
peptide: RCSAGFHYPLSLCL
B3: Phage-1384 peptide (SEQ ID NO: 1680) (peptide)
peptide: LCAAGAHYPWPQCL
B4: Phage-1374 peptide (SEQ ID NO: 1670) (peptide)
peptide: MCAAGFHYPWPACL
modifications: cysteine pairing not given here; also: fused to phage pIII protein
B5: Phage-1377 peptide (SEQ ID NO: 1673) (peptide)
peptide: TCAAGAAYPWPLCF
B6: Phage-1387 peptide (SEQ ID NO: 1683) (peptide)
peptide: LCNAGATYSWPTCL
B7: Phage-1386 peptide (SEQ ID NO: 1682) (peptide)
peptide: TCSAGATYTWSKCF
B8: Phage-1375 peptide (SEQ ID NO: 1671) (peptide)
peptide: TCAAGANWEWPWCF
B9: Phage-1383 peptide (SEQ ID NO: 1679) (peptide)
peptide: NCSAGAQWPWPICL
B10: Phage-1388 peptide (SEQ ID NO: 1684) (peptide)
peptide: TCSAGATYTWPWCF
B11: Phage-1381 peptide (SEQ ID NO: 1677) (peptide)
peptide: NCSAGATYPWPLCL
B12: Phage-1379 peptide (SEQ ID NO: 1675) (peptide)
peptide: MCSAGANWPWPLCF
B13: Phage-1376 peptide (SEQ ID NO: 1672) (peptide)
peptide: TCAAGATYAWPYCV
B14: Phage-1382 peptide (SEQ ID NO: 1678) (peptide)
peptide: SCAAGAMYSWPTCL
B15: Phage-1378 peptide (SEQ ID NO: 1674) (peptide)
peptide: TCSAGASNKLSLCL
B16: Phage-1457 peptide (SEQ ID NO: 1753) (peptide)
peptide: TCAAGAMWQWPVCL
notes: tested as crude clonal phage supernatant
B17: Phage-1456 peptide (SEQ ID NO: 1752) (peptide)
peptide: LCKPGVPYQWPTCF
notes: as for B16
B18: Phage-1453 peptide (SEQ ID NO: 1749) (peptide)
peptide: TCSAGATFHWPQCF
notes: as for B16
B19: Phage-1447 peptide (SEQ ID NO: 1743) (peptide)
peptide: TCSAGFSYSWPACF
notes: as for B16
B20: Phage-1451 peptide (SEQ ID NO: 1747) (peptide)
peptide: TCSAGAYYAWPVCL
notes: as for B16
B21: Phage-1458 peptide (SEQ ID NO: 1754) (peptide)
peptide: PCSAGATYAWLYCV
notes: as for B16
B22: Phage-1460 peptide (SEQ ID NO: 1756) (peptide)
peptide: SCAAGAAYPWPACL
notes: as for B16
B23: Phage-1446 peptide (SEQ ID NO: 1742) (peptide)
peptide: SCAAVFSFPWSPCL
notes: as for B16
B24: Phage-1455 peptide (SEQ ID NO: 1751) (peptide)
peptide: QCAAGASYPWPVCL
notes: as for B16
B25: Phage-1459 peptide (SEQ ID NO: 1755) (peptide)
peptide: SCAAGAMWPWPVCV
notes: as for B16
B26: Phage-1450 peptide (SEQ ID NO: 1746) (peptide)
peptide: TCSAGATYSWPQCL
notes: as for B16
B27: Phage-1454 peptide (SEQ ID NO: 1750) (peptide)
peptide: TCSAGAHYEWPYCL
notes: as for B16
B28: Phage-1449 peptide (SEQ ID NO: 1745) (peptide)
peptide: TCSAGATYAWPACY
notes: as for B16
B29: Phage-1448 peptide (SEQ ID NO: 1744) (peptide)
peptide: TCTAGFSYNWPMCF
notes: as for B16
B30: Phage-1452 peptide (SEQ ID NO: 1748) (peptide)
peptide: LCRAGAMWPWPTCL
notes: as for B16
B31: Phage-1434 (peptide-92 library clone, SEQ ID NO: 1730) (peptide)
peptide: LCNAGAMYKWPTCL
notes: Tested as clonal phage supernatant; not shown: fused to the pIII filament of the bacteriophage
B32: Phage-1432 (peptide-92 library clone, SEQ ID NO: 1728) (peptide)
peptide: TCSAGAHYPWPDCI
notes: as for B31
B33: Phage-1436 (peptide-92 library clone, SEQ ID NO: 1732) (peptide)
peptide: TCSAGAMWTWPYCF
notes: as for B31
B34: Phage-1435 (peptide-92 library clone, SEQ ID NO: 1731) (peptide)
peptide: MCSAGAMYPWPLCL
notes: as for B31
B35: Phage-1445 (peptide-92 library clone, SEQ ID NO: 1741) (peptide)
peptide: TCAAGASYPWPACL
notes: as for B31
B36: Phage-1444 (peptide-92 library clone, SEQ ID NO: 1740) (peptide)
peptide: TCSAGATWPWPICL
notes: as for B31
B37: Phage-1443 (peptide-92 library clone, SEQ ID NO: 1739) (peptide)
peptide: TCRAGATYNWPFCL
notes: as for B31
B38: Phage-1431 (peptide-92 library clone, SEQ ID NO: 1727) (peptide)
peptide: LCKPGVPNSWPTCL
notes: as for B31
B39: Phage-1438 (peptide-92 library clone, SEQ ID NO: 1734) (peptide)
peptide: TCSAGAGYPWPLCY
notes: as for B31
B40: Phage-1433 (peptide-92 library clone, SEQ ID NO: 1729) (peptide)
peptide: PCAAGAMWPWPVCL
notes: as for B31
B41: Phage-1442 (peptide-92 library clone, SEQ ID NO: 1738) (peptide)
peptide: TCSAGATYIWPMCF
notes: as for B31
B42: Phage-1437 (peptide-92 library clone, SEQ ID NO: 1733) (peptide)
peptide: TCAAGAYWTWPACF
notes: as for B31
B43: Phage-1440 (peptide-92 library clone, SEQ ID NO: 1736) (peptide)
peptide: TCSAGATWAWPSCF
notes: as for B31
B44: Phage-1441 (peptide-92 library clone, SEQ ID NO: 1737) (peptide)
peptide: TCSAGAHYVWPMCF
notes: as for B31
B45: Phage-1439 (peptide-92 library clone, SEQ ID NO: 1735) (peptide)
peptide: SCSAGASLQLSICL
notes: as for B31

target: T1, Anti-CD28 Fab (SEQ ID NOs: 696, 697); test: phage ELISA on plate-bound anti-CD28 Fab pre-incubated with CD28 antigen as competitor
T1 construct: In the phage ELISA the Fab was biotinylated and captured on neutravidin coated plates
T1 sequence (VH, as listed by the source, chain 1 of 2): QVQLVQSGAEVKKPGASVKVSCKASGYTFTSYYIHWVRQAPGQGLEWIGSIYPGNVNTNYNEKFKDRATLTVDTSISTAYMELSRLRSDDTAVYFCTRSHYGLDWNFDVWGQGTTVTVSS
T1 sequence (VL, as listed by the source, chain 2 of 2): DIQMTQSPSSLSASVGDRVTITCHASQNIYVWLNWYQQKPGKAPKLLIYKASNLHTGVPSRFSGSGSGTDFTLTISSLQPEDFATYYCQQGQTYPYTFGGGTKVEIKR
Procedure: (§1) Clonal phage were harvested as crude supematants and screened via standard ELISAs. […] Prior to the addition of clonal phage, wells were incubated with blocking buffer and CD28 antigen or blocking buffer alone. Without washing or aspirating, clonal phage supematants were then added to the wells and incubated for a short time. Wells were then washed followed by detection of bound phage using a horse radish conjugated anti-M13 antibody.

Binder	Anti-CD28 Fab signal in the presence of CD28 (phage binding ELISA)
B1	0.07
B2	0.06
B3	0.07
B4	0.1
B5	0.11
B6	0.06
B7	0.06
B8	0.08
B9	0.08
B10	0.07
B11	0.07
B12	0.07
B13	0.09
B14	0.08
B15	0.06

target: T2, Anti-CD28 Fab (SEQ ID NOs: 696, 697); test: phage ELISA; captured anti-CD28 Fab pre-incubated with CD28 antigen as competitor, anti-M13-HRP
T2 construct: In the phage ELISA the Fab was biotinylated and captured on neutravidin coated plates
T2 sequence (VH, as listed by the source, chain 1 of 2): as the sequence (VH, as listed by the source, chain 1 of 2) above
T2 sequence (VL, as listed by the source, chain 2 of 2): as the sequence (VL, as listed by the source, chain 2 of 2) above
Procedure: as §1

Binder	Phage binding ELISA, Anti-CD28 Fab signal in the presence of CD28
B16	0.06
B17	0.05
B18	0.08
B19	0.07
B20	0.08
B21	0.06
B22	0.06
B23	0.08
B24	0.07
B25	0.06
B26	0.07
B27	0.11
B28	0.14
B29	0.06
B30	0.06

target: T3, Anti-CD28 Fab (SEQ ID NOs: 696, 697); test: phage binding ELISA on captured anti-CD28 Fab, wells pre-incubated with CD28 antigen as competitor
T3 construct: In the phage ELISA the Fab was biotinylated and captured on neutravidin coated plates
T3 sequence (VH, as listed by the source, chain 1 of 2): as the sequence (VH, as listed by the source, chain 1 of 2) above
T3 sequence (VL, as listed by the source, chain 2 of 2): as the sequence (VL, as listed by the source, chain 2 of 2) above
Procedure: (§2) Clonal phage were harvested as crude supematants and screened via standard ELISAs. […] Prior to the addition of clonal phage, wells were incubated with blocking buffer and CD28 antigen or blocking buffer alone. Without washing or aspirating, clonal phage supematants were then added to the wells and incubated for a short time. Wells were then washed followed by detection of bound phage using a horse radish conjugated anti-M13 antibody. Clonal phage of interest were then sent for sequence analysis.

Binder	Anti-CD28 Fab signal in the presence of CD28 (phage binding ELISA)
B31	0.06
B32	0.07
B33	0.08
B34	0.07
B35	0.09
B36	0.08
B37	0.07
B38	0.06
B39	0.08
B40	0.06
B41	0.08
B42	0.09
B43	0.1
B44	0.17
B45	0.06

target: T2, Anti-CD28 Fab (SEQ ID NOs: 696, 697); test: phage ELISA; biotinylated anti-CD28 Fab on neutravidin plate, clonal phage detected with anti-M13-HRP
Procedure: as §1

Binder	Phage binding ELISA, Anti-CD28 Fab signal
B16	1.81
B17	1.82
B18	1.83
B19	1.86
B20	1.84
B21	1.81
B22	1.8
B23	1.87
B24	1.82
B25	1.8
B26	1.84
B27	1.82
B28	1.84
B29	1.85
B30	1.83

target: T3, Anti-CD28 Fab (SEQ ID NOs: 696, 697); test: phage binding ELISA; biotinylated anti-CD28 Fab on neutravidin plate, bound phage detected with anti-M13-HRP;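 note: clonal phage tested as crude supernatants, given a short incubation in the Fab-captured wells before bound phage were read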
Procedure: as §2

Binder	Anti-CD28 Fab signal (phage binding ELISA)
B31	1.94
B32	1.95
B33	1.93
B34	1.93
B35	1.89
B36	1.89
B37	1.9
B38	1.95
B39	1.92
B40	1.95
B41	1.9
B42	1.93
B43	1.92
B44	1.91
B45	1.92

target: T1, Anti-CD28 Fab (SEQ ID NOs: 696, 697); test: phage ELISA; clonal phage supernatant on biotinylated anti-CD28 Fab captured on neutravidin plate, anti-M13-HRP detection
Procedure: as §1

Binder	Anti-CD28 Fab signal (phage binding ELISA)
B1	2.15
B2	2.18
B3	2.15
B4	2.23
B5	2.18
B6	2.14
B7	2.15
B8	2.22
B9	2.15
B10	2.14
B11	2.17
B12	2.18
B13	2.21
B14	2.16
B15	2.18
